How the values were obtained:
[1] = target: HPLC-purified recombinant ORF2 capsid protein of human HEV Sar-55 (baculovirus-expressed) (human HEV, Sar-55 strain (Pakistan)) (UniProt P33426); assay: ELISA, antigen coated at 2 µg/ml, serum 1/200; negative control
[2] = target: HPLC-purified recombinant ORF2 capsid protein of swine HEV (baculovirus-expressed) (swine HEV); assay: as above

UniProt P33426, sequence (P33426 112-607): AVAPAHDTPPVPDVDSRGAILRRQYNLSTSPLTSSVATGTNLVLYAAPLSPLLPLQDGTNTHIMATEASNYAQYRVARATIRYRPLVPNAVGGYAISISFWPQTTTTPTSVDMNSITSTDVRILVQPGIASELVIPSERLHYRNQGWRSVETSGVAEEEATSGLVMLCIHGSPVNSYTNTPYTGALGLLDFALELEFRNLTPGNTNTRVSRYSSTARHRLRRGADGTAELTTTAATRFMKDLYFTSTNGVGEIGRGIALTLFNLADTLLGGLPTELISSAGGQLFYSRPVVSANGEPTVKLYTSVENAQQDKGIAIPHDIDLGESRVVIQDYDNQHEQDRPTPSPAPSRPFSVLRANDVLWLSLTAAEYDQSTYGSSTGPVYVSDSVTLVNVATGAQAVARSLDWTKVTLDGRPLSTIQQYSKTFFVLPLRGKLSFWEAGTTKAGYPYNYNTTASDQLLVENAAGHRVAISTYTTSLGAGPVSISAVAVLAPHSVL

preinoculation control chicken serum (antibody)
OD [1]: 0.142 OD at 405 nm | OD [2]: 0.103 OD at 405 nm
